Experimental data as given in patent publication US20110070235A1.

Target: M2e
Assay: peptide ELISA, mAb 5 ug/mL

Substance | ELISA A450
TCN-031 (23K12) (antibody) | 0.43
chimeric mouse V-region/human IgG1 kappa 14C2 antibody | 3.98
